Test results from patent US10442850.

Legend:
[1] = target: A1/A3-C1-C2 part of thrombin-activated human FVIII-BDD R1645H (human) (UniProt P00451); test: cell-based or functional assay
[2] = target: A1/A3-C1-C2 part of thrombin-activated cFVIII-BDD (canine) (UniProt O18806); test: cell-based or functional assay
Sequence of UniProt O18806 (O18806 20-385, chain 1 of 2): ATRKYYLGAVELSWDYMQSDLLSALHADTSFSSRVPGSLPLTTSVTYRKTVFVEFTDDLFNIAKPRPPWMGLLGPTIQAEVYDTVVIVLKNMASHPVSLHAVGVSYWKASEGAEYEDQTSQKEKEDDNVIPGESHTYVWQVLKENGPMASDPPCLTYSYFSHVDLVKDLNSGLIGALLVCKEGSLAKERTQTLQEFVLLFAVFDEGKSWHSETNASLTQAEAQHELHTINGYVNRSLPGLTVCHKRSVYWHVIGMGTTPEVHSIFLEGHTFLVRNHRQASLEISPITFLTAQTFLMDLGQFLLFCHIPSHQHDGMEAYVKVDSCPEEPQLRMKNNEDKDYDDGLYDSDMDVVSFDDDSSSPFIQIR
Sequence of UniProt O18806 (O18806 1701-2343, chain 2 of 2): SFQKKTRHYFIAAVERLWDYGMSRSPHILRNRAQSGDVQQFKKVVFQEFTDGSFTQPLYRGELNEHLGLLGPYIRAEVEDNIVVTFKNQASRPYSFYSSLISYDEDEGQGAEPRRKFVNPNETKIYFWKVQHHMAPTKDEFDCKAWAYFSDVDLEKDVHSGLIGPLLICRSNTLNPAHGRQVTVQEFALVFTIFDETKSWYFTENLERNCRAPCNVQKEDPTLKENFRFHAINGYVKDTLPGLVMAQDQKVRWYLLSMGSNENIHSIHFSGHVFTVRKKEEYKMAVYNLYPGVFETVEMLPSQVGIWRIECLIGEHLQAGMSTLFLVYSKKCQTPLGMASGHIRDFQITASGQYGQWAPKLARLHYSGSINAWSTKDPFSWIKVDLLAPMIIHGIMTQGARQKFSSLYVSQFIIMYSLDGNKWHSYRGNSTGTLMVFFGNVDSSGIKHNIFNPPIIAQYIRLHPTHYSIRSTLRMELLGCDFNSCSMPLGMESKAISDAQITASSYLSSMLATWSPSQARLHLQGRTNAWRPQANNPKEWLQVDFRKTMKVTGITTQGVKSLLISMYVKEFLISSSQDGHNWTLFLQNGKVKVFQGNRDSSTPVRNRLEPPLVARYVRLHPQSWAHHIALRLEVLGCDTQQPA

Sequence of UniProt P00451 (P00451 20-391, chain 1 of 2): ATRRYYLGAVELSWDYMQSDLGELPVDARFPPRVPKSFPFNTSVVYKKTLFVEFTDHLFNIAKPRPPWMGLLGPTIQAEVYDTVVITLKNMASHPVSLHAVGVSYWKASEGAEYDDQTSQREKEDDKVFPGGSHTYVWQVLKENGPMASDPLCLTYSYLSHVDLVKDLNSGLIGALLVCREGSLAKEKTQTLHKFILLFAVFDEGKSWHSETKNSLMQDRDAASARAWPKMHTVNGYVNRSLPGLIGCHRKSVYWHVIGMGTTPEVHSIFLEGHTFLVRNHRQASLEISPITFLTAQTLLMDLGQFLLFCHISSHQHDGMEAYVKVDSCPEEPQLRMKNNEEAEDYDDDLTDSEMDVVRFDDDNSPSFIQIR
Sequence of UniProt P00451 (P00451 1709-2351, chain 2 of 2): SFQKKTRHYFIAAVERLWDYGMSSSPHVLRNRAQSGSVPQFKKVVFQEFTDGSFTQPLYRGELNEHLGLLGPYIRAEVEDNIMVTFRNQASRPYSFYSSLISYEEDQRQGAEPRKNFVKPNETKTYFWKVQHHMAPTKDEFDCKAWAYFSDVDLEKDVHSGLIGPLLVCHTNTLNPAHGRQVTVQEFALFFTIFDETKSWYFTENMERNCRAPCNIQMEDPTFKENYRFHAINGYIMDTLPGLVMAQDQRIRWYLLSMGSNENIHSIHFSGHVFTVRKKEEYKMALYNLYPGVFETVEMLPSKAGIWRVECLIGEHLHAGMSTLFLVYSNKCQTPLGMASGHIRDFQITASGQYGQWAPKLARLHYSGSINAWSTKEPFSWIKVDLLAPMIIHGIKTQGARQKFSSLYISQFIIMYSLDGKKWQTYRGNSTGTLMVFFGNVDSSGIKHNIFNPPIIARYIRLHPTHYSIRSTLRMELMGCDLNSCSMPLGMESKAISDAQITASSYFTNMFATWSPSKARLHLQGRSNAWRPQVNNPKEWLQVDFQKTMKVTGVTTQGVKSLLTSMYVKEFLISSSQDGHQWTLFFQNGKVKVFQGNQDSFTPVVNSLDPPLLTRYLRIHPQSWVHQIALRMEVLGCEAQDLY

half-life of activated FVIII (Xase assay, A2-domain stability) (fold (against WT hBFVIII)) [1] | half-life of activated FVIII cofactor activity after thrombin activation (purified component Xase assay or clotting assay) (fold (against hFVIII)) [2] | Substance
3 | – | A2 domain of thrombin-activated human FVIII-BDD R1645H (from UniProt P00451 392-759)
– | 3 | A2 domain of thrombin-activated cFVIII-BDD (from UniProt O18806 386-753)
